Assay results taken from patent publication US20220048996A1 (F STAR BETA, published 2022).

Tests used:
[1] = target: human CD137 expressed on DO11.10 cells (DO11.10-hCD137) (human, UniProt Q07011 24-255); test: cell-based or functional assay
[2] = target: T1, hFcγR3a (R&D Systems 4325-FC-050/CF) (human, UniProt P08637 17-208); test: SPR, antibody 100 nM on CD137-his chip co-injected with FcγR 500 nM
T1 construct: Bought; In the ADCC bioassay FcγRIIIa stood on engineered Jurkat cells; also called FcγRIIIa
Description: (§1) Binding was tested on a Biacore 3000 instrument (GE Healthcare). Human OX40 (BPS Bioscience cat no 71310) and human CD137 (produced in house) biotinylated his-tagged antigens were coated onto an SA chip (GE Healthcare cat no BR100398) at 2 μM concentration. Human OX40 and human CD137 were coated on separate flow cells, while another flow cell was left blank for background subtraction. Regeneration conditions were determined to be 12 μl aqueous 10 mM glycine-HCl at pH2.0 at 20 μl/min flow rate. Antibodies (see Table 8) and human FcγRs (see Table 8) were diluted to 100 nM (antibodies) or 500 nM (human FcγRs) in HBS-P (0.01 M HEPES pH 7.4, 0.15 M NaCl, 0.005% v/v Surfactant P20, GE Healthcare, BR-1003-68) and co-injected at 20 μl/min flow rate and the dissociation was followed for 5 min.
(§2) Data analysis was performed with BiaEvaluation software version 3.2 RC1 by referencing against the blank flow cell and aligning the curves after the association of the antibody. Values for binding response at the end of the association phase were generated by subtracting the […] to normalize the effect of the antibody binding to the OX40 and CD137 receptors.

[3] = target: T2, hFcγR1 (R&D Systems 1257-FC-050/CF) (human, UniProt P12314 16-288); test: as above
T2 construct: Bought; also called FcγRI
Description: as §1, §2

[4] = target: T3, hFcγR2a (R&D Systems 1330-CD-050/CF) (human, UniProt P12318 36-218, limits assumed); test: as above
T3 construct: Bought; also called FcγRIIa
T3 sequence (looked up): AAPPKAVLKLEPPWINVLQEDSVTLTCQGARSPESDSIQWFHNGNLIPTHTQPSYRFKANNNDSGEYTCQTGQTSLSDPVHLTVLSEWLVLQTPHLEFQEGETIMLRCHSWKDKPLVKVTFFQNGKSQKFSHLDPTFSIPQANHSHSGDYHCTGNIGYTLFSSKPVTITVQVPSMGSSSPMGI
Description: as §1, §2

[5] = target: T4, hFcγR2b (R&D Systems 1460-CD-050/CF) (human, UniProt P31994 46-217, limits assumed); test: as above
T4 construct: Bought; also called FcγRIIb
T4 sequence (looked up): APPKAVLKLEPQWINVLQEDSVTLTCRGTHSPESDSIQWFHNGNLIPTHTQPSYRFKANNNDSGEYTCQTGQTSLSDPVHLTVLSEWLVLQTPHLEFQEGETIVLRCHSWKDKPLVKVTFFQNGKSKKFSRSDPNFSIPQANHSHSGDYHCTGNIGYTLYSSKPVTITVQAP
Description: as §1, §2

[6] = target: T1, hFcγR3a (R&D Systems 4325-FC-050/CF); test: SPR, antibody 100 nM on OX40-his chip co-injected with FcγR 500 nM
Description: as §1, §2

[7] = target: T2, hFcγR1 (R&D Systems 1257-FC-050/CF); test: as above
Description: as §1, §2

[8] = target: T3, hFcγR2a (R&D Systems 1330-CD-050/CF); test: as above
Description: as §1, §2

[9] = target: T4, hFcγR2b (R&D Systems 1460-CD-050/CF); test: as above
Description: as §1, §2

[10] = target: T5, hCD137-mFc-Avi (human); test: SPR, antibody captured via anti-human Fc, dimeric antigen flowed, 1:1 fit
T5 construct: Dimer; a biotinylated version was used where the text says so; also called human CD137-mFc-Avi; hCD137-mFc-Avi-Bio
Description: For CD137 affinity determination, a Biacore CM5 chip (GE Healthcare) was coated with anti-human Fc using a Human Antibody Capture Kit (GE Healthcare) according to manufacturer's conditions, to a surface density of approximately 4000 RU. […] Human or cynomolgus CD137 (hCD137-mFc-Avi or cCD137-mFc-Avi) was flowed over at a range of concentrations in a three-fold dilution series starting at 200 nM, at a flow rate of 70 μl/min. The association time was 2 min and the dissociation time was 8 min. Running buffer was HBS-EP (GE Healthcare BR100188). Flow cells were regenerated by injecting 3M magnesium chloride at a flow rate of 30 μl/min for 30 seconds.
The binding kinetics were fit with a 1:1 Langmuir model to generate binding association (kₐ) and dissociation (kd) rates. Equilibrium binding constants (KD) were calculated by dividing the dissociation rate by the association rate for each sample. Data analysis was performed with BiaEvaluation software version 3.2.

T2 sequence (P12314 16-288 limits assumed): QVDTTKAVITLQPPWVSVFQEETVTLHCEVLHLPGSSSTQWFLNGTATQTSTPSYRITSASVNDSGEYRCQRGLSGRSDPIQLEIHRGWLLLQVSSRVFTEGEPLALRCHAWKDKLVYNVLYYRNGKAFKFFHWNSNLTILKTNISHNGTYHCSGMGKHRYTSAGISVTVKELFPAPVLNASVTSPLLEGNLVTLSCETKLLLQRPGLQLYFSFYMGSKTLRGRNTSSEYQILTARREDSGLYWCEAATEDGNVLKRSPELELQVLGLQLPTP
T1 sequence (P08637 17-208 limits assumed): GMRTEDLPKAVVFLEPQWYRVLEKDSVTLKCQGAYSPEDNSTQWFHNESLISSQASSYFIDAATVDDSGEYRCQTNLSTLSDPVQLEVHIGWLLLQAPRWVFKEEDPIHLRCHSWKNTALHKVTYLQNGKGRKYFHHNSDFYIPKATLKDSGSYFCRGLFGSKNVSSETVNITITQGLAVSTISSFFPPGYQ
human CD137 expressed on DO11.10 cells (DO11.10-hCD137), sequence (Q07011 24-255): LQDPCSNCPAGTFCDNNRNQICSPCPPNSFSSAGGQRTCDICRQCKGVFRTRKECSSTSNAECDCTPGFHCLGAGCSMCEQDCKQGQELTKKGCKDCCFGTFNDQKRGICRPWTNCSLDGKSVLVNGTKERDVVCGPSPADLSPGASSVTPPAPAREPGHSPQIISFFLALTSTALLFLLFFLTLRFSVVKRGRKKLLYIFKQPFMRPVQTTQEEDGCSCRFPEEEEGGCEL

B1: FS20-22-49AA/FS30-10-16 (bispecific antibody, human IgG1, kappa, L234A L235A)
heavy: EVQLLESGGGLVQPGGSLRLSCAASGFTFSSYDMSWVRQAPGKGLEWVSDIDPTGSKTDYADSVKGRFTISRDNSKNTLYLQMNSLRAEDTAVYYCARDLLVYGFDYWGQGTLVTVSSASTKGPSVFPLAPSSKSTSGGTAALGCLVKDYFPEPVTVSWNSGALTSGVHTFPAVLQSSGLYSLSSVVTVPSSSLGTQTYICNVNHKPSNTKVDKKVEPKSCDKTHTCPPCPAPEAAGGPSVFLFPPKPKDTLMISRTPEVTCVVVDVSHEDPEVKFNWYVDGVEVHNAKTKPREEQYNSTYRVVSVLTVLHQDWLNGKEYKCKVSNKALPAPIEKTISKAKGQPREPQVYTLPPSRDEYWDQEVSLTCLVKGFYPSDIAVEWESNGDEQFAYKTTPPVLDSDGSFFLYSKLTVDQYRWNPADYFSCSVMHEALHNHYTQKSLSLSPG
light: EIVLTQSPGTLSLSPGERATLSCRASQSVSSSYLAWYQQKPGQAPRLLIYGASSRATGIPDRFSGSGSGTDFTLTISRLEPEDFAVYYCQQSYSYPVTFGQGTKVEIKRTVAAPSVFIFPPSDEQLKSGTASVVCLLNNFYPREAKVQWKVDNALQSGNSQESVTEQDSKDSTYSLSSTLTLSKADYEKHKVYACEVTHQGLSSPVTKSFNRGEC
notes: IgG1 with LALA; also called OX40/CD137 mAb^2; copies: 2 + 2
EC50 of mIL-2 release, DO11.10-hCD137 assay, crosslinked [1]: 4.7 nM | Emax of mIL-2 release, DO11.10-hCD137 assay, crosslinked [1]: 16300 pg/mL | binding response at end of association phase of FcγR [2]: 17.3 RU | binding response at end of association phase of FcγR [3]: 246 RU | decrease of binding response at end of dissociation phase of FcγR [3]: 367 RU | binding response at end of association phase of FcγR [4]: 10.9 RU | binding response at end of association phase of FcγR [5]: 9 RU | binding response at end of association phase of FcγR [6]: 31.4 RU | binding response at end of association phase of FcγR [7]: 238 RU | binding response at end of association phase of FcγR [8]: 37.4 RU | binding response at end of association phase of FcγR [9]: 34.3 RU | Kd [10]: 0.17 nM
